# Molecular target: T1, IGF-1 receptor on the cells of the PathHunter IGF1R Functional Assay (DiscoverX) (UniProt P08069 31-1367)
# Assay: cell-based or functional assay
# T1 sequence (P08069 31-1367): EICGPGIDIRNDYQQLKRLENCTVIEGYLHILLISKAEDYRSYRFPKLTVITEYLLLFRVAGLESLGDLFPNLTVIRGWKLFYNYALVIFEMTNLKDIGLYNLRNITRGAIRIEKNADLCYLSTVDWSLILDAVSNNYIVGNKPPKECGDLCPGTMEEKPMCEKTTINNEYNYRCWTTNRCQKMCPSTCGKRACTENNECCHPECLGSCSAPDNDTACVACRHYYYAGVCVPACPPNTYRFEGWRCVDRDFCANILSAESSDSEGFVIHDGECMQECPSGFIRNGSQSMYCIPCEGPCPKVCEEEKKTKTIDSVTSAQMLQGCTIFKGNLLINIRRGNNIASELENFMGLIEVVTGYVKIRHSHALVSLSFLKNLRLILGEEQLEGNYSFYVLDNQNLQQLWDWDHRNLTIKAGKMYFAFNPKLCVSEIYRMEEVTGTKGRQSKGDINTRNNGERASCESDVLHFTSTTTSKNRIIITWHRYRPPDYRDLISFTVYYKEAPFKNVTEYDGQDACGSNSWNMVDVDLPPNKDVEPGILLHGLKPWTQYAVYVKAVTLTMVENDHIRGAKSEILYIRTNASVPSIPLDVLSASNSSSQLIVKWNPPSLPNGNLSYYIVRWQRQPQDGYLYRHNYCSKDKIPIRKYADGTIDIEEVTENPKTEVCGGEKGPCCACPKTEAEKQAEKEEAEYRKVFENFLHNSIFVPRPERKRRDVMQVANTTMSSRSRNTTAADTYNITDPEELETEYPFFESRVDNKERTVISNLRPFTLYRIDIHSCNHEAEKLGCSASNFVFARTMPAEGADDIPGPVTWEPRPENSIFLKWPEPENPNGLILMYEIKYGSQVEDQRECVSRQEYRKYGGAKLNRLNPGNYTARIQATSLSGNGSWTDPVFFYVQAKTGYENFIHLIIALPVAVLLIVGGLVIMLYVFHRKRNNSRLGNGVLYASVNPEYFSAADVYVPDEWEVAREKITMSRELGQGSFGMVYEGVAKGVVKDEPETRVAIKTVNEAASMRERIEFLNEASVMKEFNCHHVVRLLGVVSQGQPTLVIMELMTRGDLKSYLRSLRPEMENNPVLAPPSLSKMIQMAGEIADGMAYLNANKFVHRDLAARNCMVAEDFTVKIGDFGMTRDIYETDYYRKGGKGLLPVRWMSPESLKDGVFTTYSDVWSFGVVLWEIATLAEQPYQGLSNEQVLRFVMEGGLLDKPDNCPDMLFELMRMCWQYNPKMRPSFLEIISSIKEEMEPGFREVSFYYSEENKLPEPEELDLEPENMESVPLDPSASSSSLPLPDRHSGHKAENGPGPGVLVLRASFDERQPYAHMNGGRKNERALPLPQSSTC
"Activation intensity (RLU), PathHunter","Fluorescence intensity (0.1 nM) (RLU), PathHunter","Fluorescence intensity (12.5 nM) (RLU), PathHunter","Ratio of activation intensity, PathHunter",Binder
1450 RLU,591 RLU,2040 RLU,0.67 relative to IGF11-16,"FW1_var9 antibody (antibody, V domains shown) VH: QVQLVQSGAEVKKPGASVKVSCKASGYTFTSYWMHWVRQAPGQGLEWMGETNPSNSVTNYAQKFQGRVTLTVDTSTSTAYMELSSLRSEDTAVYYCTIGRGRGFAYWGQGTLVTVSS VL: DIQMTQSPSSVSASVGDRVTITCRASQNINFWLSWYQQKPGKAPKLLIYKASNLHTGVPSRFSGSGSGTDFTLTISSLQPEDFATYYCLQGQSYPYTFGGGTKLEIK"
1350 RLU,516 RLU,1860 RLU,0.62 relative to IGF11-16,"FW1_var10 antibody (antibody, V domains shown) VH: QVQLVQSGAEVKKPGASVKVSCKASGYTFTSYWMHWVRQAPGQGLEWMGETNPSNSVTNYAQKFQGRVTLTVDTSTSTAYMELSSLRSEDTATYYCTIGRGRGFAYWGQGTLVTVSS VL: DIQMTQSPSSVSASVGDRVTITCRASQNINFWLSWYQQKPGKAPKLLIYKASNLHTGVPSRFSGSGSGTDFTLTISSLQPEDFATYYCLQGQSYPYTFGGGTKLEIK"
1340 RLU,558 RLU,1900 RLU,0.62 relative to IGF11-16,"FW1_var14 antibody (antibody, V domains shown) VH: QVQLVQSGAEVKKPGASVKVSCKASGYTFTSYWMHWVRQAPGQGLEWMGETNPSNSVTNYAQKFQGRVTLTVDTSTSTAYMELSSLRSEDTATYYCTIGRGRGFAYWGQGTLVTVSS VL: DIQMTQSPSSVSASVGDRVTITCRASQNINFWLSWYQQKPGKAPRLLIYKASNLHTGVPSRFSGSGSGTDFTLTISSLQPEDFATYYCLQGQSYPYTFGGGTKLEIK"
1320 RLU,572 RLU,1890 RLU,0.61 relative to IGF11-16,"FW2_var2 antibody (antibody, V domains shown) VH: QVQLVQSGAEVKKPGSSVKVSCKASGYTFTSYWMHWVRQAPGQGLEWMGETNPSNSVTNYAQKFQGRVTLTVDKSTSTAYMELSSLRSEDTAVYYCTIGRGRGFAYWGQGTLVTVSS VL: DIQMTQSPSSLSASVGDRVTITCRASQNINFWLSWYQQKPGKIPKLLIYKASNLHTGVPSRFSGSGSGTDFTLTISSLQPEDVATYYCLQGQSYPYTFGGGTKLEIK"

# Molecular target: T1, IGF-1 receptor on the cells of the …
# Assay: cell-based or functional assay
# Remark: another data set of the same source
row,"Signal intensity ratio (compared to IGF11-16) at 16.7 nM, PathHunter",Binder
1,0.54 ratio to IGF11-16,"FW1_var9-hH2a (antibody, V domains shown) VH: QVQLQQSGAEVKKPGASVKVSCKASGYTFTSYWMHWVRQAPGQGLEWMGETNPSNSVTNYAQKFQGRVTLTVDTSTSTAYMELSSLRSEDTAVYYCTIGRGRGFAYWGQGTLVTVSS VL: DIQMTQSPSSVSASVGDRVTITCRASQNINFWLSWYQQKPGKAPKLLIYKASNLHTGVPSRFSGSGSGTDFTLTISSLQPEDFATYYCLQGQSYPYTFGGGTKLEIK"
2,0.6 ratio to IGF11-16,"FW1_var9-hH3a (antibody, V domains shown) VH: QVQLVQPGAEVKKPGASVKVSCKASGYTFTSYWMHWVRQAPGQGLEWMGETNPSNSVTNYAQKFQGRVTLTVDTSTSTAYMELSSLRSEDTAVYYCTIGRGRGFAYWGQGTLVTVSS VL: DIQMTQSPSSVSASVGDRVTITCRASQNINFWLSWYQQKPGKAPKLLIYKASNLHTGVPSRFSGSGSGTDFTLTISSLQPEDFATYYCLQGQSYPYTFGGGTKLEIK"
3,0.7 ratio to IGF11-16,"FW1_var9-hH1a (antibody, V domains shown) VH: QIQLVQSGAEVKKPGASVKVSCKASGYTFTSYWMHWVRQAPGQGLEWMGETNPSNSVTNYAQKFQGRVTLTVDTSTSTAYMELSSLRSEDTAVYYCTIGRGRGFAYWGQGTLVTVSS VL: DIQMTQSPSSVSASVGDRVTITCRASQNINFWLSWYQQKPGKAPKLLIYKASNLHTGVPSRFSGSGSGTDFTLTISSLQPEDFATYYCLQGQSYPYTFGGGTKLEIK"

# Molecular target: T1, IGF-1 receptor on the cells of the …
# Assay: cell-based or functional assay
# Remark: another data set of the same source
Binder,"Signal activation EC50 vs IGF11-16, PathHunter","Signal activation Emax vs IGF11-16, PathHunter"
"IGF11-16 with alanine substitution of S at position 56 (CDR-H2) (antibody, mouse IgG1, V domains shown) VH: QIQLQQPGAELVKPGASVKLSCKAPGYTFTSYWMHWVKQRPGQGLEWIGETNPSNAVTNYNEKFKSKATLTVDKSSSTAYMQLSSLTSEDSAVYYCTIGRGRGFAYWGQGTLVTVSA VL: DIQMNQSPSSLSASLGDTITITCRASQNINFWLSWCQQKPGNIPKLLIYKASNLHTGVPSRFSGSGSGTDFTLTISSLQPEDIATYYCLQGQSYPYTFGGGTKLEIK",2.9 ratio vs IGF11-16,1.1 ratio vs IGF11-16
"IGF11-16 with alanine substitution of N at position 55 (CDR-H2) (antibody, mouse IgG1, V domains shown) VH: QIQLQQPGAELVKPGASVKLSCKAPGYTFTSYWMHWVKQRPGQGLEWIGETNPSASVTNYNEKFKSKATLTVDKSSSTAYMQLSSLTSEDSAVYYCTIGRGRGFAYWGQGTLVTVSA VL: DIQMNQSPSSLSASLGDTITITCRASQNINFWLSWCQQKPGNIPKLLIYKASNLHTGVPSRFSGSGSGTDFTLTISSLQPEDIATYYCLQGQSYPYTFGGGTKLEIK",3 ratio vs IGF11-16,1 ratio vs IGF11-16
"IGF11-16 with alanine substitution of W at position 33 (CDR-H1) (antibody, mouse IgG1, V domains shown) VH: QIQLQQPGAELVKPGASVKLSCKAPGYTFTSYAMHWVKQRPGQGLEWIGETNPSNSVTNYNEKFKSKATLTVDKSSSTAYMQLSSLTSEDSAVYYCTIGRGRGFAYWGQGTLVTVSA VL: DIQMNQSPSSLSASLGDTITITCRASQNINFWLSWCQQKPGNIPKLLIYKASNLHTGVPSRFSGSGSGTDFTLTISSLQPEDIATYYCLQGQSYPYTFGGGTKLEIK",0.5 ratio vs IGF11-16,0 ratio vs IGF11-16
"IGF11-16 with alanine substitution of N at position 52 (CDR-H2) (antibody, mouse IgG1, V domains shown) VH: QIQLQQPGAELVKPGASVKLSCKAPGYTFTSYWMHWVKQRPGQGLEWIGETAPSNSVTNYNEKFKSKATLTVDKSSSTAYMQLSSLTSEDSAVYYCTIGRGRGFAYWGQGTLVTVSA VL: DIQMNQSPSSLSASLGDTITITCRASQNINFWLSWCQQKPGNIPKLLIYKASNLHTGVPSRFSGSGSGTDFTLTISSLQPEDIATYYCLQGQSYPYTFGGGTKLEIK",2.7 ratio vs IGF11-16,0 ratio vs IGF11-16
"IGF11-16 with alanine substitution of R at position 102 (CDR-H3) (antibody, mouse IgG1, V domains shown) VH: QIQLQQPGAELVKPGASVKLSCKAPGYTFTSYWMHWVKQRPGQGLEWIGETNPSNSVTNYNEKFKSKATLTVDKSSSTAYMQLSSLTSEDSAVYYCTIGRGAGFAYWGQGTLVTVSA VL: DIQMNQSPSSLSASLGDTITITCRASQNINFWLSWCQQKPGNIPKLLIYKASNLHTGVPSRFSGSGSGTDFTLTISSLQPEDIATYYCLQGQSYPYTFGGGTKLEIK",54.4 ratio vs IGF11-16,4.8 ratio vs IGF11-16
"IGF11-16 with alanine substitution of F at position 64 (CDR-H2) (antibody, mouse IgG1, V domains shown) VH: QIQLQQPGAELVKPGASVKLSCKAPGYTFTSYWMHWVKQRPGQGLEWIGETNPSNSVTNYNEKAKSKATLTVDKSSSTAYMQLSSLTSEDSAVYYCTIGRGRGFAYWGQGTLVTVSA VL: DIQMNQSPSSLSASLGDTITITCRASQNINFWLSWCQQKPGNIPKLLIYKASNLHTGVPSRFSGSGSGTDFTLTISSLQPEDIATYYCLQGQSYPYTFGGGTKLEIK",2.4 ratio vs IGF11-16,0.9 ratio vs IGF11-16

# Results, then the binder that gave them:
"Signal activation EC50 vs IGF11-16, PathHunter","Signal activation Emax vs IGF11-16, PathHunter",Binder
2.5 ratio vs IGF11-16,1 ratio vs IGF11-16,"IGF11-16 with alanine substitution of S at position 54 (CDR-H2) (antibody, mouse IgG1, V domains shown) VH: QIQLQQPGAELVKPGASVKLSCKAPGYTFTSYWMHWVKQRPGQGLEWIGETNPANSVTNYNEKFKSKATLTVDKSSSTAYMQLSSLTSEDSAVYYCTIGRGRGFAYWGQGTLVTVSA VL: DIQMNQSPSSLSASLGDTITITCRASQNINFWLSWCQQKPGNIPKLLIYKASNLHTGVPSRFSGSGSGTDFTLTISSLQPEDIATYYCLQGQSYPYTFGGGTKLEIK"
2.3 ratio vs IGF11-16,0.9 ratio vs IGF11-16,"IGF11-16 with alanine substitution of N at position 59 (CDR-H2) (antibody, mouse IgG1, V domains shown) VH: QIQLQQPGAELVKPGASVKLSCKAPGYTFTSYWMHWVKQRPGQGLEWIGETNPSNSVTAYNEKFKSKATLTVDKSSSTAYMQLSSLTSEDSAVYYCTIGRGRGFAYWGQGTLVTVSA VL: DIQMNQSPSSLSASLGDTITITCRASQNINFWLSWCQQKPGNIPKLLIYKASNLHTGVPSRFSGSGSGTDFTLTISSLQPEDIATYYCLQGQSYPYTFGGGTKLEIK"
2.2 ratio vs IGF11-16,1 ratio vs IGF11-16,"IGF11-16 with alanine substitution of H at position 35 (CDR-H1) (antibody, mouse IgG1, V domains shown) VH: QIQLQQPGAELVKPGASVKLSCKAPGYTFTSYWMAWVKQRPGQGLEWIGETNPSNSVTNYNEKFKSKATLTVDKSSSTAYMQLSSLTSEDSAVYYCTIGRGRGFAYWGQGTLVTVSA VL: DIQMNQSPSSLSASLGDTITITCRASQNINFWLSWCQQKPGNIPKLLIYKASNLHTGVPSRFSGSGSGTDFTLTISSLQPEDIATYYCLQGQSYPYTFGGGTKLEIK"

# Molecular target: T1, IGF-1 receptor on the cells of the …
# Assay: cell-based or functional assay
# Remark: another data set of the same source
"Activation intensity (RLU), PathHunter","Fluorescence intensity (0.1 nM) (RLU), PathHunter","Fluorescence intensity (12.5 nM) (RLU), PathHunter","Ratio of activation intensity, PathHunter",Binder
1740 RLU,221 RLU,1960 RLU,0.49 relative to IGF11-16,"FW1_var14_NEKS (antibody, human IgG4, V domains shown) VH: QVQLVQSGAEVKKPGASVKVSCKASGYTFTSYWMHWVRQAPGQGLEWMGETNPSNSVTNYNEKFKSRVTLTVDTSTSTAYMELSSLRSEDTATYYCTIGRGRGFAYWGQGTLVTVSS VL: DIQMTQSPSSVSASVGDRVTITCRASQNINFWLSWYQQKPGKAPRLLIYKASNLHTGVPSRFSGSGSGTDFTLTISSLQPEDFATYYCLQGQSYPYTFGGGTKLEIK"
1960 RLU,223 RLU,2190 RLU,0.55 relative to IGF11-16,"FW1_var10_NEKS (antibody, human IgG4, V domains shown) VH: QVQLVQSGAEVKKPGASVKVSCKASGYTFTSYWMHWVRQAPGQGLEWMGETNPSNSVTNYNEKFKSRVTLTVDTSTSTAYMELSSLRSEDTATYYCTIGRGRGFAYWGQGTLVTVSS VL: DIQMTQSPSSVSASVGDRVTITCRASQNINFWLSWYQQKPGKAPKLLIYKASNLHTGVPSRFSGSGSGTDFTLTISSLQPEDFATYYCLQGQSYPYTFGGGTKLEIK"
